Patent US20090298196A1 (published 2009)
Ends that are not written are not given here.

T1: peptide of sequence no. 1 (GEPGDDAPS, amino acid nos. 757 to 765 of human type 2 collagen) (human, also: biotin-labeled in DELFIA screening, immunogen form had a C-terminal cysteine added)
T1 construct: also called biotin-labeled target antigen peptide
T1 peptide: GEPGDDAPS

T2: peptide of sequence no. 2 (GPPGPQG, amino acid nos. 769 to 775 of human type 2 collagen) (human, also: immunogen form had an N-terminal cysteine added)
T2 peptide: GPPGPQG

B1: 6G4 antibody (monoclonal antibody produced by hybridoma TAG-6G4) (antibody, mouse IgG1, V domains shown)
VH: EVQLVESGGSLVQPGGSLKLSCAASGFTFNNYGMSWVRQIPDKRLELVATITGNGHSTYYPVSVRGRFTISRDNAKNTLYLQMSSLKSEDTAMYYCVRGYSNFAFWGQGTTLTVSS
VL: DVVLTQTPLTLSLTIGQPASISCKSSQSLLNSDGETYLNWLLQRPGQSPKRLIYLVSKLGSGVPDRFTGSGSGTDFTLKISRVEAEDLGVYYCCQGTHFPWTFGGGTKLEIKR
notes: Mouse IgG1(k), 150 kDa, H chain 50 kDa and L chain 27 kDa; It was labeled with europium cryptate for the HTRF assay; also called 6G4 antibodies; cryptate-labeled 6G4 antibodies
B2: 2E6 antibody (monoclonal antibody produced by hybridoma TAG-2E6) (antibody, V domains shown)
VH: QVTLKESGPGILQPSQTLSLTCSFSGFSLSTYGMGVGWIRQPSGKGLEWLAHIWWNDNKYYNTTLKSRLTISKDTSNKQVFLKIASVDTADTATYYCARIERWDPWFAYWGQGTLVTVSA
VL: DVVMTQTPLSLPVSLGDQASISCRSSQSLVYSNGNTYFHWYLQKPGQSPKLLIYKVSNRFSGVPDRFSGSGSGTDFTLKISRVEAEDLGVYFCSQSTHVPLTFGAGTKLELKR
notes: Mouse IgG2b(k), 150 kDa, H chain 50 kDa and L chain 27 kDa; It was labeled with XL665 for the HTRF assay and immobilised on a carrier column for purification; also called 2E6 antibodies; XL665-labeled 2E6 antibodies

Assays:
[1] = target: T1, peptide of sequence no. 1 (GEPGDDAPS, …); experiment: characterisation of the antibody (peptide immunisation and DELFIA screening)
Procedure: (§1) The screening was done using the time-resolved fluorescence immunoassay (DELFIA, Amersham, registered trademark) described below. 50 μl measurement buffer solution (50 mM tris hydrochloric acid buffer solution (pH 7.5) containing 150 mM NaCl, 0.01% Tween80, 0.5% BSA and 0.05% NaN₃), 50 μl culture supernatant and 50 μl labeled antigen (measurement buffer solution containing 20 ng/ml biotin-labeled target antigen peptide and 100 ng/ml europium-labeled streptoavidine (manufactured by Perkin-Elmer Life Science)) were consecutively added to microtiter plates (manufactured by Sumitomo Bakelite) with solidified anti-mouse IgG antibodies (manufactured by Shibayagi), and a reaction was conducted at 4° C. for 16 hours. After washing the plates twice using 200 μl washing solution (150 mM NaCl, 0.02% NaN₃ and 0.01% Tween20), 150 μl enhancement solution (manufactured by Perkin-Elmer Life Science) were added, and the time-resolved fluorescence was measured using 1420ARVOsx Multilabel Counter (manufactured by Perkin-Elmer Life Science). One well with high reactivity was selected by means of this screening, cloning was repeated twice using the limiting dilution method, and the presence of antibody-producing hybridoma TAG-6G4 was established. […]

[2] = target: T2, peptide of sequence no. 2 (GPPGPQG, …); experiment: as above
Procedure: as §1

| Binder | binding result [1] | binding result [2] |
| --- | --- | --- |
| B1 | binds |  |
| B2 |  | binds |
